Source: US10654893B2, “Self-assembling peptide compositions” (3-D MATRIX, LTD., priority 2014, dated 2020)

Assays:
Type in all cases: physicochemical
[1] = Rheometer stress sweep test of peptide compositions at selected concentrations (AR500, 40 mm plates); conditions: 37° C.; for Loss Modulus (G″) / Storage Modulus (G′): at 1 Pa of oscillation stress, 10 rad/s; for Max. Viscosity (max η′): maximum in range of measured stress; for Yield Stress: stress sweep 10 rad/s
Method: The present Example further describes measurement of various rheological properties of certain peptide compositions at selected concentrations using a rheometer (AR500, TA Instruments) with 40 mm plates. A peptide composition (700 μL) was placed on the rheometer plate and excess composition was gently removed by Kimwipes. Measurements were performed after 2 minutes of relaxation time at 37° C. Storage modulus, loss modulus, and viscosity (η′) were measured at 37° C. with the plates placed at a measuring geometry gap of 300 μm, and stress sweep tests were performed at 0.1 Pa˜1000 Pa of oscillation stress with angular frequency at 10 rad/s.
Results are shown in FIGS. 2-4 for RADA16 (SEQ ID NO:1), IEIK13 (SEQ ID NO:3), and KLD12 (SEQ ID NO:2).

[2] = Rheological properties at selected ionic strengths (DHR-1, 20 mm plates)
From the text: FIGS. 27-29 show rheological properties measured with a rheometer (DHR-1, TA Instruments) with 20 mm plates when ion strengths are slightly lower than the critical ion strengths. Ion strengths of RADA16 (SEQ ID NO:1), KLD12 (SEQ ID NO:2) and IEIK13 (SEQ ID NO:3) were 0.7 M, 0.2 M and 0.02M, respectively for the measurements. Rheological properties of RADA16 (SEQ ID NO:1), KLD12 (SEQ ID NO:2) and IEIK13 (SEQ ID NO:3) compositions were higher after adjusting their ionic strength levels with NaCl to 0.7 M (RADA16 (SEQ ID NO:1)), 0.2 M (KLD12 (SEQ ID NO:2)) or 0.02 M (IEIK13 (SEQ ID NO:3)).
Rheological properties of peptide compositions at selected ionic strengths were measured using a rheometer (DHR-1, TA Instruments) with 20 mm plates. […] Results are shown in FIG. 30 for RADA16 (SEQ ID NO:1) and in FIG. 31 for IEIK13 (SEQ ID NO:3).
Viscosities of peptide compositions at selected ionic strength levels were evaluated. […] Viscosities of 1% IEIK13 (SEQ ID NO:3) compositions were evaluated using a rheometer (DHR-1, TA Instruments) with 20 mm plates. The results are shown in FIGS. 32A and 32B for IEIK13 (SEQ ID NO:3).

[3] = Rheological properties (stiffness, storage modulus, viscosity) at selected pH levels
Method: Rheological properties of certain peptide compositions were observed before and after adjusting their pH levels to 3.4 (RADA16 (SEQ ID NO:1) and KLD12 (SEQ ID NO:2)) or 3.7 (IEIK13 (SEQ ID NO:3)). Rheological properties of peptides were evaluated using a rheometer (AR500, TA Instruments) with 40 mm plates. Specifically, a peptide composition (700 μL) was placed on the rheometer plate and excess composition was gently removed by Kimwipes. Measurements were performed after 2 minutes of relaxation time at 37° C. RADA16 (SEQ ID NO:1), KLD12 (SEQ ID NO:2) and IEIK13 (SEQ ID NO:3) compositions at elevated pH were stiffer than those at 2.5 (RADA16 (SEQ ID NO:1)), 2.0 (KLD12 (SEQ ID NO:2)), and 2.1 (IEIK13 (SEQ ID NO:3)).
Storage modulus of certain peptide compositions at selected pH levels were evaluated using a rheometer (DHR-1, TA Instruments) with 20 mm plates. […] Determined storage moduli for tested peptide compositions are shown in FIG. 18 for RADA16 (SEQ ID NO:1) and FIG. 19 for IEIK13 (SEQ ID NO:3), respectively.
Viscosities of 1% IEIK13 (SEQ ID NO:3) compositions at selected pH levels were evaluated using a rheometer (DHR-1, TA Instruments) with 20 mm plates.

[4] = Rheological properties before and after DMEM treatment
Method: Effects of Dulbecco's modified Eagle's medium (DMEM) (pH 7.4) on rheological properties of IEIK13 (SEQ ID NO:3), KLD12 (SEQ ID NO:2), and RADA16 (SEQ ID NO:1) compositions were evaluated using a rheometer (AR500, TA Instruments) with 40 mm plates. DMEM is a cell culture medium that contains 6.4 g/L of NaCl, 3.4 g/L NaHCO3 (sodium bicarbonate), minor amounts of other salts, various amino acids, and 4.5 g/L of glucose. The pH of DMEM is 7.2±0.2 and the osmolality is 335±30 mOsm/Kg H2O. DMEM is close to human physiological fluids, for example, blood.
Before being mixed with the DMEM solution, 1% peptide compositions were kept in 4° C. for at least 48 hours. To perform experiments, 1 mL of peptide composition was gently pipetted and placed on the plate of the rheometer. 2 mL of the DMEM solution was gently added around the peptide composition. The peptide composition was treated with the DMEM for two minutes, then medium was removed, and the plates were placed at a measuring geometry gap at around 450 μm. Measurements were performed at 37° C. after 2 min of relaxation. Frequency tests were performed from 1 rad/s to 100 rad/s at 1 Pa of oscillation stress.
Using a DHR-1 rheometer (TA Instruments), rheological properties of peptide compositions at selected concentrations were measured before and after the DMEM treatment. Frequency sweep tests were performed from 1 rad/sec to 10 rad/sec at 1 Pa and the storage moduli in the graphs were at 1 rad/sec. […] Results are shown in FIGS. 22A and 22B for RADA16 (SEQ ID NO:1) and FIGS. 23A and 23B for IEIK13 (SEQ ID NO:3), respectively.
Using a DHR-1 rheometer (TA Instruments), rheological properties of peptide compositions at selected ion strengths were evaluated 10 mins after the DMEM treatment. Frequency sweep tests were performed from 1 rad/sec to 10 rad/sec at 1 Pa and the storage modulus at 1 rad/sec was selected for data. […] At 0.9 M or higher ionic strengths of NaCl, RADA16 (SEQ ID NO:1) compositions became cloudy.

With “Arg-Ala-Asp-Ala-Arg-Ala-Asp-Ala-Arg-Ala-Asp-Ala-Arg-Ala-Asp-Ala [RADA16]” the “Loss Modulus (G″)” value ([1]; Conc. 1%) was 12 Pa, the “Storage Modulus (G′)” value ([1]; Conc. 1%) was 74 Pa and the “Max. Viscosity (max η′)” value ([1]; Conc. 1%) was 2.3 Pa · s. For the same substance, the “Yield Stress” value ([1]; Conc. 1%) was 15.9 Pa, the “Loss Modulus (G″)” value ([1]; Conc. 1.5%) was 30 Pa and the “Storage Modulus (G′)” value ([1]; Conc. 1.5%) was 158 Pa. For the same substance, the “Max. Viscosity (max η′)” value ([1]; Conc. 1.5%) was 3.4 Pa · s, the “Yield Stress” value ([1]; Conc. 1.5%) was 20.0 Pa and the “Loss Modulus (G″)” value ([1]; Conc. 2%) was 39 Pa. For the same substance, the “Storage Modulus (G′)” value ([1]; Conc. 2%) was 217 Pa, the “Max. Viscosity (max η′)” value ([1]; Conc. 2%) was 4.0 Pa · s and the “Yield Stress” value ([1]; Conc. 2%) was 31.6 Pa. For the same substance, the “Loss Modulus (G″)” value ([1]; Conc. 2.5%) was 53 Pa, the “Storage Modulus (G′)” value ([1]; Conc. 2.5%) was 352 Pa and the “Max. Viscosity (max η′)” value ([1]; Conc. 2.5%) was 5.6 Pa · s. The “Yield Stress” value ([1]; Conc. 2.5%) was 50.1 Pa, the “Rheological properties as a function of ionic strength” value ([2]; 1% compositions, NaCl, decreased at higher ionic strength) was “increased with ionic strength adjustment up to 0.7 M” and the “Rheological properties after adjusting ionic strength with NaCl” value ([2]; NaCl 0.7 M (RADA16), 0.2 M (KLD12), 0.02 M (IEIK13), 1%) was “higher”. The “Rheological properties with NaCl versus KCl and CaCl2” value ([2]; RADA16 compositions with salts) was “slightly higher”, the “Storage modulus as a function of pH” value ([3]; DHR-1, 20 mm plates, 2.5% RADA16, 1.5% IEIK13 (FIGS. 18, 19)) was “increased with pH increase up to 3.4” and the “Stiffness at elevated pH versus unadjusted pH” value ([3]; pH 3.4 (RADA16, KLD12) or 3.7 (IEIK13) versus 2.5 (RADA16), 2.0 (KLD12), 2.1 (IEIK13), stress sweep) was “stiffer”. The Appearance of composition ([4]; 0.9 M or higher ionic strengths of NaCl) was “became cloudy”, the “Rheological properties as a function of ionic strength after DMEM treatment” value ([4]; 10 mins after DMEM treatment, NaCl, decreased with 0.7 M or higher) was “increased with ionic strength adjustment up to 0.7 M” and the “Change of rheological properties with DMEM treatment” value ([4]; selected NaCl ionic strengths, RADA16 statement follows 0.9 M or higher NaCl (no gelation)) was “did not change with the DMEM treatment”. The “Rheological properties with DMEM treatment and/or pH elevation” value ([4]; selected concentrations, storage moduli at 1 rad/sec, 1 Pa) was “increased with the DMEM treatment and/or pH elevation”.
